Assay results published in PMC3463621.

Target: recombinant collagen α1(XI) amino terminal domain (NTD) (UniProt P20909)
Test: SPR

Chain of UniProt P20909 (P20909 35-1561): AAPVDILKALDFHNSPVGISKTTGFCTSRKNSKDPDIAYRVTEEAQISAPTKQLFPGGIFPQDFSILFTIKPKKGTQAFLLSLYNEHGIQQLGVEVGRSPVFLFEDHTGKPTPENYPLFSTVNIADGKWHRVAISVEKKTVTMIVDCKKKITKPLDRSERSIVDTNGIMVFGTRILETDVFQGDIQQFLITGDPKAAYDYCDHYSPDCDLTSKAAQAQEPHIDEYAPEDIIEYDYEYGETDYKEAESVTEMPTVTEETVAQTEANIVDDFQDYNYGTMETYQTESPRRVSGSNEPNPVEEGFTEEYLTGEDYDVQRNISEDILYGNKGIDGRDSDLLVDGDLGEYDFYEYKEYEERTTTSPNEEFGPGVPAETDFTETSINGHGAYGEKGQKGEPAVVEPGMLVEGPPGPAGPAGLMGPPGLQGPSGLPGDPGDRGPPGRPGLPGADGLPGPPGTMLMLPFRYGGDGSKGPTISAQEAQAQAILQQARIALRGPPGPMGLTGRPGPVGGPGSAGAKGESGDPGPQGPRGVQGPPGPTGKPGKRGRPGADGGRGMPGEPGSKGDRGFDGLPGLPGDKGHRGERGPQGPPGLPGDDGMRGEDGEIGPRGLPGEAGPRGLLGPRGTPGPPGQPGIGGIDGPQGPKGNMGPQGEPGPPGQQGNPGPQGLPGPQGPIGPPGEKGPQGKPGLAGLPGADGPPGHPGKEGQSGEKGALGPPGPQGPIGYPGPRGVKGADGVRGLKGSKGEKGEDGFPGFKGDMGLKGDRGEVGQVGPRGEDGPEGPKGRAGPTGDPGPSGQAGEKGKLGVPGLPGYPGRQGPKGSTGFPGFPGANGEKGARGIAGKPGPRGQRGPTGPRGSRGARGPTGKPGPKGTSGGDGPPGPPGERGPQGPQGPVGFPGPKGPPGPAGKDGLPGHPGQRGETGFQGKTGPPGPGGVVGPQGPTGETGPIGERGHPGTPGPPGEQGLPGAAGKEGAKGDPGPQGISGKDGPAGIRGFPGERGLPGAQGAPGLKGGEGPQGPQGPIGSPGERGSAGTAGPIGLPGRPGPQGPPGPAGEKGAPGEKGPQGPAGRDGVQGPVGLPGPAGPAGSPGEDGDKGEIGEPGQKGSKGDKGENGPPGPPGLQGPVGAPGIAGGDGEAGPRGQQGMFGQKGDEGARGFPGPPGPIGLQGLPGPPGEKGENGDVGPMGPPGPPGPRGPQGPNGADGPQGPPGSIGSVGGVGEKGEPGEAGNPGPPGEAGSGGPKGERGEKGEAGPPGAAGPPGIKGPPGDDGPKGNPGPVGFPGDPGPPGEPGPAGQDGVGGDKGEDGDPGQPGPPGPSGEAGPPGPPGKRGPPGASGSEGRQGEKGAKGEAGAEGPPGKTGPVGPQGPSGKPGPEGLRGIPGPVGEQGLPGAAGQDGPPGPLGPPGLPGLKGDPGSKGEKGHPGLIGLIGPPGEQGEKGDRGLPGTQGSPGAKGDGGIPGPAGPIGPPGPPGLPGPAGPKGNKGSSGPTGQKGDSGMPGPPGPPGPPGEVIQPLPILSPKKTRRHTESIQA

## Thrombospondin 1 (R&D Systems) (from UniProt P07996 19-1170) (natural protein)
  Kd: 100 nM
